{
  "source": "patent US20260199504A1",
  "molecular_target": "human Nectin-4 on Nectin4-CHOK1 cells (CHO-K1 cell strain highly expressing Nectin-4) (human) (UniProt Q96NY8)",
  "sequence (Q96NY8 32-510 limits assumed)": "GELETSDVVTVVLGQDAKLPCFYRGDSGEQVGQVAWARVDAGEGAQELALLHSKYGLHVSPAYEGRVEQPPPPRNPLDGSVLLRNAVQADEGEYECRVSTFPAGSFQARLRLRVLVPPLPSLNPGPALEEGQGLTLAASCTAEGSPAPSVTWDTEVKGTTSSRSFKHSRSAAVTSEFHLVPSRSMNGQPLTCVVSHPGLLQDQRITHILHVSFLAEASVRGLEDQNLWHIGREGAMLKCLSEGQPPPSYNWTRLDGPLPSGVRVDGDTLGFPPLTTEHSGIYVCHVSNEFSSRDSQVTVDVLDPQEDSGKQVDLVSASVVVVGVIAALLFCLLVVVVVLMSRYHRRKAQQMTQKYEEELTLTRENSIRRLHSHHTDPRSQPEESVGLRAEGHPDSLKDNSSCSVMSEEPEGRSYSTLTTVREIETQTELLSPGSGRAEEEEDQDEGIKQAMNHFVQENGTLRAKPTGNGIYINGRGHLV",
  "assay": "cell-based or functional assay",
  "data": [
    {"substance": "C25-IgG1 (IgG1 isotype negative control) (antibody)", "values": [
      {"measurement": "FITC-A signal value, 5 nM Ab + 15 nM pHrodo (pHrodo endocytosis assay, Nectin4-CHOK1 clone 3)", "result": 129},
      {"measurement": "FITC-A signal value, 20 nM Ab + 60 nM pHrodo (pHrodo endocytosis assay, Nectin4-CHOK1 clone 3)", "result": 154}
    ]}
  ]
}
